± gives the uncertainty stated by the source.

A short description of this data set: abundance fitness (aPCA) (normalised: wild type 0, dead -1); higher = more abundant; growth selection in yeast, the domain comes from the species named. The settings on record: Homo sapiens.
“Lipoamide acyltransferase component of branched-chain alpha-keto acid dehydrogenase complex, mitochondrial E190A, P11182”: the abundance fitness was -0.093 ± 0.047. For “Lipoamide acyltransferase component of branched-chain alpha-keto acid dehydrogenase complex, mitochondrial E190C, P11182”, the abundance fitness was -0.315 ± 0.12.

Consider “Lipoamide acyltransferase component of branched-chain alpha-keto acid dehydrogenase complex, mitochondrial E190D, P11182”, for which the abundance fitness was 0.039 ± 0.064.

Substance “Lipoamide acyltransferase component of branched-chain alpha-keto acid dehydrogenase complex, mitochondrial E190F, P11182” returned an abundance fitness of -0.448 ± 0.076.

The substance “Lipoamide acyltransferase component of branched-chain alpha-keto acid dehydrogenase complex, mitochondrial E190G, P11182” gave an abundance fitness of -0.409 ± 0.038. In turn, “Lipoamide acyltransferase component of branched-chain alpha-keto acid dehydrogenase complex, mitochondrial E190H, P11182” displayed an abundance fitness of -0.086 ± 0.072. In the case of “Lipoamide acyltransferase component of branched-chain alpha-keto acid dehydrogenase complex, mitochondrial E190I, P11182” it was -0.609 ± 0.08; in that of “Lipoamide acyltransferase component of branched-chain alpha-keto acid dehydrogenase complex, mitochondrial E190K, P11182”, -0.178 ± 0.056. In the case of “Lipoamide acyltransferase component of branched-chain alpha-keto acid dehydrogenase complex, mitochondrial E190L, P11182” it was -0.186 ± 0.042; in that of “Lipoamide acyltransferase component of branched-chain alpha-keto acid dehydrogenase complex, mitochondrial E190M, P11182”, -0.147 ± 0.049. For the substance “Lipoamide acyltransferase component of branched-chain alpha-keto acid dehydrogenase complex, mitochondrial E190N, P11182”, the abundance fitness was -0.032 ± 0.047. The substance “Lipoamide acyltransferase component of branched-chain alpha-keto acid dehydrogenase complex, mitochondrial E190P, P11182” came in with an abundance fitness of -0.963 ± 0.081. “Lipoamide acyltransferase component of branched-chain alpha-keto acid dehydrogenase complex, mitochondrial E190Q, P11182”: the abundance fitness is -0.069 ± 0.059.

In turn, “Lipoamide acyltransferase component of branched-chain alpha-keto acid dehydrogenase complex, mitochondrial E190R, P11182” yielded an abundance fitness of -0.199 ± 0.04. In the case of “Lipoamide acyltransferase component of branched-chain alpha-keto acid dehydrogenase complex, mitochondrial E190S, P11182” it was -0.079 ± 0.046.

Consider “Lipoamide acyltransferase component of branched-chain alpha-keto acid dehydrogenase complex, mitochondrial E190T, P11182”, for which the abundance fitness is -0.119 ± 0.047. In the case of “Lipoamide acyltransferase component of branched-chain alpha-keto acid dehydrogenase complex, mitochondrial E190W, P11182” it was -0.192 ± 0.046; in that of “Lipoamide acyltransferase component of branched-chain alpha-keto acid dehydrogenase complex, mitochondrial E190Y, P11182”, -0.349 ± 0.05; in that of “Lipoamide acyltransferase component of branched-chain alpha-keto acid dehydrogenase complex, mitochondrial E203A, P11182”, -0.041 ± 0.042. In the case of “Lipoamide acyltransferase component of branched-chain alpha-keto acid dehydrogenase complex, mitochondrial E203C, P11182” it was -0.053 ± 0.075. The substance “Lipoamide acyltransferase component of branched-chain alpha-keto acid dehydrogenase complex, mitochondrial E203D, P11182” had an abundance fitness of -0.089 ± 0.059. With “Lipoamide acyltransferase component of branched-chain alpha-keto acid dehydrogenase complex, mitochondrial E203F, P11182”, the abundance fitness was -0.409 ± 0.14. With “Lipoamide acyltransferase component of branched-chain alpha-keto acid dehydrogenase complex, mitochondrial E203G, P11182” the figure was -0.089 ± 0.04; with “Lipoamide acyltransferase component of branched-chain alpha-keto acid dehydrogenase complex, mitochondrial E203H, P11182”, -0.124 ± 0.059. In the case of “Lipoamide acyltransferase component of branched-chain alpha-keto acid dehydrogenase complex, mitochondrial E203K, P11182” it was -0.027 ± 0.055. In the case of “Lipoamide acyltransferase component of branched-chain alpha-keto acid dehydrogenase complex, mitochondrial E203L, P11182” it was -0.176 ± 0.049; in that of “Lipoamide acyltransferase component of branched-chain alpha-keto acid dehydrogenase complex, mitochondrial E203M, P11182”, -0.127 ± 0.06; in that of “Lipoamide acyltransferase component of branched-chain alpha-keto acid dehydrogenase complex, mitochondrial E203P, P11182”, -0.173 ± 0.059. For the substance “Lipoamide acyltransferase component of branched-chain alpha-keto acid dehydrogenase complex, mitochondrial E203Q, P11182”, the abundance fitness was -0.104 ± 0.058.

“Lipoamide acyltransferase component of branched-chain alpha-keto acid dehydrogenase complex, mitochondrial E203R, P11182” gave an abundance fitness of 0.024 ± 0.037. “Lipoamide acyltransferase component of branched-chain alpha-keto acid dehydrogenase complex, mitochondrial E203S, P11182” returned an abundance fitness of -0.007 ± 0.067. “Lipoamide acyltransferase component of branched-chain alpha-keto acid dehydrogenase complex, mitochondrial E203T, P11182” registered an abundance fitness of -0.109 ± 0.087. The substance “Lipoamide acyltransferase component of branched-chain alpha-keto acid dehydrogenase complex, mitochondrial E203V, P11182” registered an abundance fitness of -0.08 ± 0.042. In turn, “Lipoamide acyltransferase component of branched-chain alpha-keto acid dehydrogenase complex, mitochondrial E210A, P11182” yielded an abundance fitness of 0.021 ± 0.038. In the case of “Lipoamide acyltransferase component of branched-chain alpha-keto acid dehydrogenase complex, mitochondrial E210C, P11182” it was -0.048 ± 0.053; in that of “Lipoamide acyltransferase component of branched-chain alpha-keto acid dehydrogenase complex, mitochondrial E210D, P11182”, -0.006 ± 0.058. With “Lipoamide acyltransferase component of branched-chain alpha-keto acid dehydrogenase complex, mitochondrial E210F, P11182” the figure was -0.24 ± 0.066. With “Lipoamide acyltransferase component of branched-chain alpha-keto acid dehydrogenase complex, mitochondrial E210H, P11182” the figure was -0.319 ± 0.15; with “Lipoamide acyltransferase component of branched-chain alpha-keto acid dehydrogenase complex, mitochondrial E210I, P11182”, -0.239 ± 0.055. Take “Lipoamide acyltransferase component of branched-chain alpha-keto acid dehydrogenase complex, mitochondrial E210K, P11182”: the abundance fitness amounted to 0.034 ± 0.072. For the substance “Lipoamide acyltransferase component of branched-chain alpha-keto acid dehydrogenase complex, mitochondrial E210L, P11182”, the abundance fitness is -0.133 ± 0.041. With “Lipoamide acyltransferase component of branched-chain alpha-keto acid dehydrogenase complex, mitochondrial E210M, P11182” the figure was -0.109 ± 0.044. In the case of “Lipoamide acyltransferase component of branched-chain alpha-keto acid dehydrogenase complex, mitochondrial E210N, P11182” it was -0.061 ± 0.08. In the case of “Lipoamide acyltransferase component of branched-chain alpha-keto acid dehydrogenase complex, mitochondrial E210P, P11182” it was -0.081 ± 0.056; in that of “Lipoamide acyltransferase component of branched-chain alpha-keto acid dehydrogenase complex, mitochondrial E210Q, P11182”, -0.042 ± 0.053; in that of “Lipoamide acyltransferase component of branched-chain alpha-keto acid dehydrogenase complex, mitochondrial E210R, P11182”, 0.008 ± 0.039.

(Values after the Human Domainome abundance scans (Beltran et al. 2025).)
